# Reference: publication PMC11169341
# Molecular target: T1, B7H3 on Weri-RB1 cells (UniProt Q5ZPR3)
# T1 sequence: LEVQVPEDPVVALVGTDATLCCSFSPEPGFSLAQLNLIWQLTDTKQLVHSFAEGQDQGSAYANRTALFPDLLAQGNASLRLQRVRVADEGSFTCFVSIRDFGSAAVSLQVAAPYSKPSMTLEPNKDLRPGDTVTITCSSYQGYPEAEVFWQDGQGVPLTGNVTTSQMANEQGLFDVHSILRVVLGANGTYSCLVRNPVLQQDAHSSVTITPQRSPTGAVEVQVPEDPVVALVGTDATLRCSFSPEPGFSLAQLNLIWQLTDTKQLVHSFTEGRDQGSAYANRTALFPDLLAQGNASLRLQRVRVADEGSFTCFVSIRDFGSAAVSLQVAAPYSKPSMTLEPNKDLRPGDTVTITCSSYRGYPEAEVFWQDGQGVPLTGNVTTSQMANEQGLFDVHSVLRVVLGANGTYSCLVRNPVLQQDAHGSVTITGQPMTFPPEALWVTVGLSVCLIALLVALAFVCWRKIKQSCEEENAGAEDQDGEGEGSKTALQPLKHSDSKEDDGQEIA
# Assay: flow cytometry
# Conditions: FITC aptamer, ABB: AWB (composition not given) + 0.1 mg/ml yeast tRNA, 0.1 mg/ml salmon sperm DNA, 5% FBS, 1 mg/ml BSA, 60 min, 0-500 nM …, flow binding assay on ice, d
row,Sequence,Kd
1,TAGGGAAGAGAAGGACATATGATCGCCCCTCTTTTCGATTTCAAGCTCCTAACCCACACCTCTTTGACTAGTACATGACCACTT [VRF-HS_B7H3-02],0.0472 µM
2,TAGGGAAGAGAAGGACATATGATATAAGTGACACATCAATCTCATGCGGATGAACCAGTGCGTTTGACTAGTACATGACCACTT [VRF-HS_B7H3-03],0.0466 µM
3,TAGGGAAGAGAAGGACATATGATTGCCCCTGACACTTACACGCCACTATCAAGGCACACGCCATTGACTAGTACATGACCACTT [VRF-HS_B7H3-04],0.0514 µM
4,TAGGGAAGAGAAGGACATATGATACAGCACGGTATGACGAGTCCATTGTGTGTGCAGCTCGCTAATTGACTAGTACATGACCACTT [VRF-HS_B7H3-01],0.0321 µM
5,TAGGGAAGAGAAGGACATATGATTGAGAAGTCACGCCACTTACCTGCGCTCAAAACCTCAGAATTGACTAGTACATGACCACTT [VRF-HS_B7H3-05],0.0506 µM
